Publication PMC6748655 (Cell host & microbe, 2019)

Columns and labels:
[1] = target: HA on intact H3N2 A/Aichi/2/1968 (X31) virions (Influenza A virus H3N2 A/Aichi/2/1968 …, UniProt P03437, strain); test: ELISA
representative H4 HA = representative H4 HA (Influenza A virus H4, strain not named …, UniProt M1UPL4, strain); test: ELISA

B1: FL-1066 IgG (human IgG1) (antibody, V domains shown)
VH: DVKLVESGEGLVKPGGSLKLSCAASGFTFSGYDMSWVRQTPEKRLEWVAYISSGGDYIYYADTVKGRFTISRDNARNTLYLQMSSLKSEDTAMYYCTRDSDYYGSRVWFAYWGQGTLVTVSG
VL: QAVVTQESALTTSPGETVTLTCRSSTGAVTTSNYANWVQEKPDHLFTGLIGGTNNRAPGVPARFSGSLIGDKAALTITGAQTEDEAIYFCALWFSNHWVFGGGTKLTVL
B1: binds [1]; binds (representative H4 HA).
